Where two headings read alike, the source gives them in different places.
B1: G22C rhTSH (TSH G22C (alpha)) (ligand)
alpha: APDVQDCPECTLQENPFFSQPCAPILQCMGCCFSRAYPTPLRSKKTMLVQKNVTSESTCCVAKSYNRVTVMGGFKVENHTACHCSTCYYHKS
beta: FCIPTEYTMHIERRECAYCLTINTTICAGYCMTRDINGKLFLPKYALSQDVCTYRDFIYRTVEIPGCPLHVAPYFSYPVALSCKCGKCNTDYSDCIHEAIKTNYCTKPQKSYLVGFSV
modifications: Alpha Cys22 may carry a cap after expression; whether the assayed sample was capped is not stated. N-glycans at alpha Asn52, Asn78 and beta Asn23.
notes: Cysteine mutant without PEG, produced in CHO cells; also called alphaG22C TSH
B2: 40 kD linear G22C (PEGylated Cys-mutant TSH) (ligand)
alpha: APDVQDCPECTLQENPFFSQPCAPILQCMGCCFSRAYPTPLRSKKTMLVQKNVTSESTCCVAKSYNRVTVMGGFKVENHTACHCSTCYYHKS
beta: FCIPTEYTMHIERRECAYCLTINTTICAGYCMTRDINGKLFLPKYALSQDVCTYRDFIYRTVEIPGCPLHVAPYFSYPVALSCKCGKCNTDYSDCIHEAIKTNYCTKPQKSYLVGFSV
modifications: Chain 1 (alpha) pos 22: Cys carrying a 40 kD linear cysteine-reactive PEG, written C. N-glycans at alpha Asn52, Asn78 and beta Asn23.
notes: also called 40 KD G22C
B3: 40 kD 4-arm PEG G22C (ligand)
alpha: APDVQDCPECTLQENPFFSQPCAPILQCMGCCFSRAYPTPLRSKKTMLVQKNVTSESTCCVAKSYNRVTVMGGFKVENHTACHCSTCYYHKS
beta: FCIPTEYTMHIERRECAYCLTINTTICAGYCMTRDINGKLFLPKYALSQDVCTYRDFIYRTVEIPGCPLHVAPYFSYPVALSCKCGKCNTDYSDCIHEAIKTNYCTKPQKSYLVGFSV
modifications: Chain 1 (alpha) pos 22: Cys carrying a 40 kD 4-arm (branched) cysteine-reactive PEG, written C. N-glycans at alpha Asn52, Asn78 and beta Asn23.
B4: 40 kD 2-arm PEG G22C (ligand)
alpha: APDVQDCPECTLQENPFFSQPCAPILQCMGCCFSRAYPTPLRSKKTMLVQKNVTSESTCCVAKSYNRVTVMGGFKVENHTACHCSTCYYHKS
beta: FCIPTEYTMHIERRECAYCLTINTTICAGYCMTRDINGKLFLPKYALSQDVCTYRDFIYRTVEIPGCPLHVAPYFSYPVALSCKCGKCNTDYSDCIHEAIKTNYCTKPQKSYLVGFSV
modifications: Chain 1 (alpha) pos 22: Cys carrying a 40 kD 2-arm (branched) cysteine-reactive PEG, written C. N-glycans at alpha Asn52, Asn78 and beta Asn23.
B5: N-terminal mono-PEGylated rhTSH with 40 kD PEG (ligand)
alpha: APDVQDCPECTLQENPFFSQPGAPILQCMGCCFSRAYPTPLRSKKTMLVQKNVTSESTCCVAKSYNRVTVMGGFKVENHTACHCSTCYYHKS
beta: FCIPTEYTMHIERRECAYCLTINTTICAGYCMTRDINGKLFLPKYALSQDVCTYRDFIYRTVEIPGCPLHVAPYFSYPVALSCKCGKCNTDYSDCIHEAIKTNYCTKPQKSYLVGFSV
modifications: One 40 kD aldehyde PEG on an N-terminal amine (alpha Ala1 or beta Phe1; which subunit is not stated). N-glycans at alpha Asn52, Asn78 and beta Asn23. None is carried by the letters.
notes: also called 40 kD N-terminal
B6: Recombinant human TSH (rhTSH), THYROGEN Thyroid Stimulating Hormone (ligand)
alpha: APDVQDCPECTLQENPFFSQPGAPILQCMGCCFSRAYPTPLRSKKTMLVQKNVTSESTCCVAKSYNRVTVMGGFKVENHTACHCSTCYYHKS
beta: FCIPTEYTMHIERRECAYCLTINTTICAGYCMTRDINGKLFLPKYALSQDVCTYRDFIYRTVEIPGCPLHVAPYFSYPVALSCKCGKCNTDYSDCIHEAIKTNYCTKPQKSYLVGFSV
modifications: N-linked glycans at alpha Asn52 and Asn78 and beta Asn23; not carried by the letters.
notes: also called TSH control; control TSH; copies: 1 + 1

What was measured:
[1] = target: T1, porcine TSH receptor (immobilized, TSH Receptor Autoantibody 2nd Generation ELISA kit, RSR Limited) (porcine, UniProt Q8SPP9 22-764, limits assumed); assay: competition ELISA; inhibition of biotinylated rhTSH binding to immobilized porcine TSH receptor
T1 construct: Bought kit plates; the construct is not described
T1 sequence (Q8SPP9 22-764 limits assumed): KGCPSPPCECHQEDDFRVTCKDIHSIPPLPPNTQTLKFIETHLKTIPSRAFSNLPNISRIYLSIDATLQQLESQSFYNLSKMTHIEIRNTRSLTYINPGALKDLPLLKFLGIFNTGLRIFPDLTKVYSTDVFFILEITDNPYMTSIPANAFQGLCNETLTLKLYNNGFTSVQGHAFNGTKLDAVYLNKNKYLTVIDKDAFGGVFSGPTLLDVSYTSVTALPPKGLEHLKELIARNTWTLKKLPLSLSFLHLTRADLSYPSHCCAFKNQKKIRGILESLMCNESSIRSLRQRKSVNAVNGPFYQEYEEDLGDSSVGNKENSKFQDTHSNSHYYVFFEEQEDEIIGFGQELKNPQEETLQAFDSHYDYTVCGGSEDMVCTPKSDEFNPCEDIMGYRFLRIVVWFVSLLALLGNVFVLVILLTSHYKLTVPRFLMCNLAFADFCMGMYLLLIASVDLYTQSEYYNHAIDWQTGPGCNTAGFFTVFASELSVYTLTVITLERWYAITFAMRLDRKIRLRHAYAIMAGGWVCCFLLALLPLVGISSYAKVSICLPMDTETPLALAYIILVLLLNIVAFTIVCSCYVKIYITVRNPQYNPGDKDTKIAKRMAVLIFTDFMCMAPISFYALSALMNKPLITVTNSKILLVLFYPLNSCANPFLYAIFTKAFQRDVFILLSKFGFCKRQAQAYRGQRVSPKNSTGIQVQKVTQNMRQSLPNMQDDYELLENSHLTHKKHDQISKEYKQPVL
Method: (§1) Purified PEGylated conjugates were analyzed by in vitro porcine TSH receptor binding assay using the TSH Receptor Autoantibody 2nd Generation ELISA kit from RSR Limited (Kronus, Star, Id.). Instead of using the biotinylated human monoclonal autoantibody to the TSH receptor provided by the kit, we biotinylated Thyrogen® (rhTSH) to use for competitive inhibition of binding to TSH receptor. Binding of biotinylated rhTSH to immobilized porcine TSH receptor was inhibited by either rhTSH control or PEGylated rhTSH conjugates and IC₅₀ values were measured.
(§2) Thyrogen® was biotinylated with 1.7 to 1.8 biotins per protein using the ChromaLink™ Biotin Labeling Reagent according to the manufacturer's protocol (QED Bioscience Inc., San Diego, Calif.) and buffer exchanged into 50 mM sodium phosphate, 150 mM sodium chloride pH 7.0 with a Zeba™ Desalt Spin Column (Thermo Scientific, Rockford, Ill.). In vitro measurement of receptor binding was performed by competition of biotinylated Thyrogen® and PEG-rhTSH conjugate for binding to porcine TSH receptor immobilized onto 96-well plates supplied with the TSH Receptor Autoantibody 2nd Generation ELISA kit from RSR Limited (Kronus, Star, Id.). PEG-rhTSH conjugates were serially diluted 1:5 from 16 μM to 41 pM in assay buffer (100 mM HEPES pH 7.5, 20 mM EDTA, 1% BSA, 0.5% Triton X-100) and mixed 1:1 with biotinylated Thyrogen® diluted 1000-fold in assay buffer. The mixture was added to each receptor-coated well and incubated at 25° C. for 25 minutes. Unbound rhTSH was washed away and streptavidin peroxidase was added at 25° C. for 20 minutes according to the RSR Limited ELISA protocol to determine the amount of biotinylated Thyrogen® bound to the plate. The plate was then washed three times to remove excess unbound streptavidin peroxidase and then tetramethylbenzidine (TMB) was added to each well and incubated in the dark at 25° C. for 30 minutes. The reaction which was quenched with 0.5M sulfuric acid stop buffer and the absorbance of each well was read at 450 nm using a SpectraMax® 340pc plate reader (Molecular Devices, Sunnyvale, Calif.). The data was fit using a sigmoidal dose response equation with GraphPad Prism software to generate IC₅₀ values.

[2] = target: T1, porcine TSH receptor (immobilized, TSH …); assay: in vitro TSH receptor binding assay (competition ELISA)
[3] = target: T1, porcine TSH receptor (immobilized, TSH …); assay: competition ELISA; inhibition of biotinylated rhTSH binding to immobilized porcine TSH receptor; remark: listed apart in the source
Method: as §1, §2

Row | Binder | IC50 [1] [nM] | fold change (IC50 against rhTSH) [1] [fold] | fold decrease of receptor binding affinity against rhTSH control [2] [fold] | IC50 [3] [nM] | fold change (IC50 against rhTSH) [3] [fold]
1 | B1 | 41.6 | 1.5 |  |  | 
2 | B2 | 248 | 8.9 |  |  | 
3 | B3 | 743 | 26.5 |  |  | 
4 | B4 | 417 | 14.9 |  |  | 
5 | B5 | 319 | 11.4 | 11.1 | 397 | 10.8
6 | B6 | 28 | 1 |  | 36.7 | 1

From patent US20170065725A1 (published 2017)
